Columns and labels:
[1] = target: human PSMA, full-length (endogenous on LNCaP and CW22Rv1 cells, or stably overexpressed in HEK293T/17 cells) (human) (UniProt Q04609); test: flow cytometry (summary sentence; differs from […] in Table 2)
[2] = target: Avi-PSMA, extracellular part of human PSMA comprising an N-terminal Avi-tag (human) (UniProt Q04609); test: native ELISA, biotinylated Avi-PSMA on streptavidin plate, mAb titrated
[3] = target: rhPSMA, extracellular part of human PSMA (residues 44-750) (human) (UniProt Q04609); test: SPR (BIAcore 2000), mAb captured by anti-mouse IgG, rhPSMA as analyte, Langmuir 1:1 fit
[4] = target: human PSMA, full-length (endogenous on LNCaP and CW22Rv1 cells, or stably overexpressed in HEK293T/17 cells) (human) (UniProt Q04609); test: flow cytometry on live LNCaP cells, mAb 5 µg/mL, Alexa Fluor 647 secondary antibody; number printed beside the open (LNCaP) histogram
[5] = target: Avi-PSMA, extracellular part of human PSMA comprising an N-terminal Avi-tag (human) (UniProt Q04609); test: direct ELISA on biotinylated Avi-PSMA held on streptavidin-coated plates, HRP secondary antibody, chemiluminescence, normalised binding (%)
[6] = target: human PSMA, full-length (endogenous on LNCaP and CW22Rv1 cells, or stably overexpressed in HEK293T/17 cells) (human) (UniProt Q04609); test: flow cytometry titration on live LNCaP cells
[7] = target: human PSMA, full-length (endogenous on LNCaP and CW22Rv1 cells, or stably overexpressed in HEK293T/17 cells) (human) (UniProt Q04609); test: flow cytometry titration on live LNCaP cells, Alexa Fluor 647 secondary antibody, normalised binding (%)

| Kd [1] | Kd [2] | Kd [3] | median fluorescence (Alexa Fluor 647) [4] | EC50 (read off the curve) [5] | Kd [6] | koff [3] | kon [3] | EC50 (read off the curve) [7] | Substance |
| --- | --- | --- | --- | --- | --- | --- | --- | --- | --- |
| 1.2 nM | 0.14 nM | 1.08 nM | 10700 | 0.1 to 0.2 nM | – | – | – | – | 5D3 mAb (antibody) |
| – | 1.12 nM | 1.21 nM | 10600 | 0.9 nM | 15.2 nM | 0.000123 s⁻¹ | 102000 M⁻¹ s⁻¹ | 10 nM | J591 mAb (antibody) |

From patent US20190330367A1
